Positions count from the first letter of the chain named.
T1: CD19 endogenously expressed on Raji and NALM-6 cells (human, UniProt P15391 20-556)
T1 construct: whole, on cells; also called CD19 on NALM-6 cells; CD19 on Raji cells
T1 sequence (looked up): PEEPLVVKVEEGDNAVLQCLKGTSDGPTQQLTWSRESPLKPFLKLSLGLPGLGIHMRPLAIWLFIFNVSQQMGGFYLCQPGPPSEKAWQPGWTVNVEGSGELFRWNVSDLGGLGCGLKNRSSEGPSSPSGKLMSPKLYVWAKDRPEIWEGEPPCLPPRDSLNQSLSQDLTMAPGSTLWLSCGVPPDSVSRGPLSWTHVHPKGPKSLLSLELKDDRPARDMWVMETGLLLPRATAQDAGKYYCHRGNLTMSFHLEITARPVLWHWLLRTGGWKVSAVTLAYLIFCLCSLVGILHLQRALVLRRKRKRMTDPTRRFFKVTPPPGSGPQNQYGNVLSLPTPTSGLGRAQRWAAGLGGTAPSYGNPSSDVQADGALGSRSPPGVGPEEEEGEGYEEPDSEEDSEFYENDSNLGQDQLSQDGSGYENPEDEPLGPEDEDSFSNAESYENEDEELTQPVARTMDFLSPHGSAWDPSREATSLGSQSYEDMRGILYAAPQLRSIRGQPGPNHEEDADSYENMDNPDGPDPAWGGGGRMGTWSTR

T2: soluble CD19-HSA fusion protein (CD19 extracellular domains fused to human serum albumin) (human, UniProt P15391 20-291)
T2 construct: extracellular domain; also called recombinant CD19 antigen; not shown: human serum albumin
T2 sequence (looked up): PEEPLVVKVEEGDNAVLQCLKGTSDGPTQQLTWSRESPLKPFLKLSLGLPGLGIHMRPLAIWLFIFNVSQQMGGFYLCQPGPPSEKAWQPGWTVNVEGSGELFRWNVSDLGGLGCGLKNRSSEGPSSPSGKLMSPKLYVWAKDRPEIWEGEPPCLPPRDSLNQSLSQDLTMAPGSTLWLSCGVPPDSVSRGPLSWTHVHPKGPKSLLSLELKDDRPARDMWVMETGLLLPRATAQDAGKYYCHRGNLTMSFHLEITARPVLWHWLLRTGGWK

B1: Antibody 6 (antibody, V domains shown)
VH: QVQLVESGGGVVQPGRSLRLSCAASGFTFSSYGMHWVRQAPGKGLEWVALIWYDGSNKYYADSVKGRFTISRDNSKNTLYLQMNSLRAEDTAVYYCAKPVEGLLRGFDYWGQGTLVTVSS
VL: EIVLTQSPGTLSLSPGERATLSCRASQSVRSSYLAWYQQKPGQAPRLLIYGASSRATGIPDRFSGSGSGTDFTLTISRLEPEDFAVYYCQQAGVPPLTFGGGTKVEIK
notes: Human IgG produced in Adimab yeast, purified on Protein A; Has the VH and VL of #6 scFv; also called CD19 Antibody 6
B2: Antibody 5 (antibody, V domains shown)
VH: B1 VH
VL: EIVLTQSPGTLSLSPGERATLSCRASQSVSSSYLAWYQQKPGQAPRLLIYGASSRATGIPDRFSGSGSGTDFTLTISRLEPEDFAVYYCQQAGGVPPLTFGGGTKVEIK
notes: Human IgG produced in Adimab yeast, purified on Protein A; Has the VH and VL of #5 scFv; also called CD19 Antibody 5
B3: Antibody 7 (antibody, V domains shown)
VH: B1 VH
VL: B2 VL with L4M, L98F
notes: Human IgG produced in Adimab yeast, purified on Protein A; Has the VH and VL of #7 scFv; also called CD19 Antibody 7
B4: Antibody 15 (antibody, V domains shown)
VH: B1 VH
VL: B1 VL with R30S, S54R, V94I, L97Y
notes: Human IgG produced in Adimab yeast, purified on Protein A; Has the VH and VL of #15 scFv; also called CD19 Antibody 15
B5: Antibody 2 (antibody, V domains shown)
VH: B1 VH
VL: B1 VL with R30S, V94A, P95V, L97I
notes: Human IgG produced in Adimab yeast, purified on Protein A; also called CD19 Antibody 2
B6: Antibody 4 (antibody, V domains shown)
VH: B1 VH
VL: B2 VL with A92V, G93D, G94S, V95L, P96H, L98F
notes: Human IgG produced in Adimab yeast, purified on Protein A; Has the VH and VL of #4 scFv; also called CD19 Antibody 4
B7: Antibody 1 (antibody, V domains shown)
VH: B1 VH
VL: B1 VL with L4M, R30S, S54N, P95F, L97F
notes: Human IgG produced in Adimab yeast, purified on Protein A; Has the VH and VL of #1 scFv; also called CD19 Antibody 1

Each binder was assayed against T1, CD19 endogenously expressed on Raji and … (assay: flow cytometry, serial dilution on NALM-6 cells).

Row | EC50 [nM] | Binder
1 | 0.18 | B1
2 | 0.219 | B2
3 | 0.21 | B3
4 | 0.27 | B4
5 | 0.314 | B5
6 | 0.519 | B6
7 | 0.588 | B7

What follows are binders tested against T2, soluble CD19-HSA fusion protein (CD19 …) (assay: BLI (ForteBio Octet RED384), IgG on AHC sensors, 100 nM soluble CD19-HSA, 1:1 model).

Row | Kd [nM] | koff [s⁻¹] | kon [M⁻¹ s⁻¹] | Binder
8 | 6.4 | 0.000484 | 75600 | B1
9 | 10.4 | 0.000785 | 75600 | B2
10 | 14.9 | 0.00105 | 70000 | B3
11 | 20.8 | 0.00145 | 69800 | B4
12 | 9.01 | 0.000554 | 61500 | B5
13 | 9.27 | 0.000218 | 23500 | B6
14 | 32.9 | 0.00176 | 53400 | B7

— patent US20230346938A1 (Memorial Sloan Kettering, published 2023)
